# Entries after “also recorded” stand apart in the source; their conditions may differ.
# Assays:
# ADA-deficient mice [1] = settings: cited from earlier work
# [2] = tested on: corpus cavernosal strips (CCS); experiment: EFS-induced relaxation of phenylephrine-precontracted corpus cavernosal strips (CCS) of ADA+ and ADA-/- mice; assay type: cell-based, mouse
# Source text: Prolonged penile erection in ADA-deficient mice is associated with increased corpus cavernosal relaxation in response to nerve stimulation. To determine if the potent and prolonged penile erection seen in ADA-deficient mice is associated with increased corpus cavernosal relaxation, we evaluated comparatively the relaxation of phenylephrine-precontracted isolated corpus cavernosal strips of ADA+ and ADA−/− mice in response to nerve stimulation^73,74. The corpus cavernosum is under sympathetic influence to maintain a contracted state resulting in a flaccid penis^3. To emulate this situation, contraction was induced by treatment with the α-adrenergic receptor agonist, phenylephrine (10 μM). The maximum phenylephrine-induced contraction was reached within 10-20 s after application to cavernosal strips from ADA+ and ADA−/− mice. Electrical field stimulation (EFS) is commonly used to stimulate the nerves that innervate the smooth muscle cells of the corpus cavernosum to mediate relaxation, corresponding to normal physiological penile erection^19,73,74,92,93. In our studies, EFS induced relaxation of corpus cavernosal strips from both ADA+ and ADA−/− mice in a voltage and frequency-dependent manner (FIGS. 14b and c). For ADA+ mice, relaxation increased incrementally over a standard voltage range with a maximal response at 20 V and 30 Hz.
# Elevated adenosine in ADA-deficient mice contributes to increased corpus cavernosal strip relaxation. […]
# Function experiments. […] The contractility of each isolated corpus cavernosum smooth muscle cells (CCSM) strip was measured using an isometric force transducer (AD Instrument Inc., Georgia, Vt., USA). […] The contractile responses of the strips were analysed by adding 10 μM phenylephrine to the bath, and force changes were recorded in response to drug application and to electrical field stimulation. […] The changes of cAMP and cGMP contents in CC strips were subsequently measured by commercial enzyme immunoassay kit (Amersham Pharmacia) (see below).
# [3] = tested on: corpus cavernosal strips (CCS); experiment: Adenosine-induced relaxation of corpus cavernosal strips (CCS); assay type: cell-based, mouse; settings: CCS of wild type mice, 1-10 μM, adenosine 100 μM
# Experimental: FIG. 16. […] CCS of wild type mice were treated with different concentrations of adenosine with or without DCF (5 μM), a specific inhibitor of adenosine deaminase. Then the extent (mN) of force was monitored. (b) CCS of wild type mice were treated with 100 μM adenosine in the presence of different concentrations of DCF (0-100 uM). Then the extent of force was measured. Data are expressed as mean±SE. *p<0.05, adenosine treated versus the control, **p<0.05, DCF treated versus the adenosine treated.
# FIG. 17. A2BR signaling is required for adenosine-mediated corpus cavernosal strips (CCS) relaxation. (a) CCS of wild type mice were treated with different concentrations of theophiline (1-10 μM) in the presence or absence of adenosine (100 μM). The force changes were measured by force transducer. Data are expressed as mean±SE. *p<0.05, adenosine treated versus the control, **p<0.05, theophiline treated versus the untreated, N=5. (b) CCS from wild type, A2AR, A1R A2BR and A3R-deficient mice were treated with different concentrations of adenosine. The relaxation was measured by force transducer. Data are expressed as mean±SE. *p<0.05, adenosine treated versus the wild type. (c) CCS were isolated from wild type and A2BR-deficient mice and treated with different concentrations of adenosine in the presence or absence of L-NAME (100 μM) or MRS1706 (10 μM). 10 min after treatment, cellular extracts were collected and cAMP levels were measured by using a commercial enzyme immunoassay kit (Amersham Pharmacia). Data are expressed as mean±SE. *p<0.05, adenosine treated versus the control without treatment; **p<0.05, adenosine treated with MRS1706 versus the adenosine treated alone; ***p<0.05, CCS of A2BR-deficient mice treated with adenosine versus the CCS of wild type mice treated with adenosine. N=6-7. (d) CCS of A2BR and ADA double deficient mice lost the hypersensitivity to nerve stimulation compared to ADA deficient mice.
# (§1) Function experiments. The tunica albuginea was cut longitudinally, starting at the most proximal point of the corpus cavernosum (CC) toward the penile shaft, and the erectile tissue was partially dissected free from the tunica. One strip of tissue (0.3×0.3×3 mm) was obtained from each corpus cavernosum. The contractility of each isolated corpus cavernosum smooth muscle cells (CCSM) strip was measured using an isometric force transducer (AD Instrument Inc., Georgia, Vt., USA). The strip was mounted in a thermostatically controlled tissue bath containing aerated PSS (mM: 119 NaCl, 4.7 KCl, 24 NaHCO 3, 1.2 KH2PO4, 2.5 CaCl2, 1.2 MgSO4, 0.023 EDTA, and 11 glucose; 5 ml volume, 95% O2 and 5% CO2, 37° C.) and stretched to a resting tension of 0.1 mN. The contractile responses of the strips were analysed by adding 10 μM phenylephrine to the bath, and force changes were recorded in response to drug application and to electrical field stimulation. The particular electrical field stimulation parameters of 0-30V, 30 HZ with a pulse width of approximately 0.5 ms, are commonly used in the mice. […] The changes of cAMP and cGMP contents in CC strips were subsequently measured by commercial enzyme immunoassay kit (Amersham Pharmacia) (see below).
# [4] = tested on: multiple animal models, including humans; settings: in vivo; cited from earlier work
# ADA-deficient mice [5] = experiment: Spontaneous prolonged penile erection (priapic activity) in ADA-deficient mice, PEG-ADA enzyme therapy; assay type: in vivo, mouse; settings: intraperitoneal injection of PEG-ADA
# Experimental: The ADA-deficient mice were injected with PEG-ADA weekly. During the course of maintaining our production colony of ADA-deficient mice, we noticed that ADA-deficient male breeders (kept alive by enzyme therapy) frequently presented with prolonged penile erections lasting up to 72 hours (FIG. 1a). The penile erections were typically noticed at the time of the scheduled weekly PEG-ADA injection. We know from earlier studies that the lowest levels of circulating adenosine are achieved during the first day following the PEG-ADA injection^21,28. Adenosine levels rise continually during the subsequent days preceding the next PEG-ADA injection. Thus, adenosine levels are highest just prior to the scheduled weekly injection of PEG-ADA when the priapism was observed^21,28. Priapic erections were never observed in wild type male mice (FIG. 14a).
# Prolonged penile erection in ADA-deficient mice depends on pronounced accumulation of adenosine in the penis. We hypothesized that the increased penile erection and corpus cavernosal smooth muscle relaxation in response to nerve stimulation in ADA-deficient mice were due to elevated concentrations of adenosine. To test this hypothesis, adenosine levels were quantified in penile tissue from ADA^+ and ADA^−/− mice^21,23,28. […]
# [6] = tested on: corpus cavernosal strips (CCS); experiment: EFS-induced relaxation of CCS of SCD transgenic mice and controls; assay type: cell-based, mouse
# Experimental: FIG. 21. Priapic activity seen in SCD transgenic mice is dependent on elevated adenosine in penis via A2BR signaling. (a) Adenosine levels in the penis increased in SCD transgenic mice. Perchloric acid extracts of penile tissues from SCD transgenic mice and control mice were analyzed by HPLC to determine the levels of adenosine. The data are expressed as mean±SE. *p<0.005, (control n=5 and SCD transgenic mice n=6), SCD transgenic mice versus the controls. (b) Increased corpus cavernosum strips (CCS) relaxation by electrical field stimulation (EFS) in SCD transgenic mice. Relaxation effect of EFS with different voltages (0-30V) at 30 Hz and 0.5 ms pulse width, alternating polarity between pulses, in 10 μM phenylephrine-precontracted CCS from the controls (n=5) and SCD transgenic mice (n=5). (c-e) Prolonged penile erection seen in SCD transgenic mice is due to high levels of adenosine in the penis via A2BR signaling. Average EFS-induced relaxation from the PE-precontracted CC strips of the controls and SCD transgenic mice treated without or with PEG-ADA, MRS1706 or ZM241389. EFS-induced force change (c), duration of relaxation by EFS (d) and area under basal line (e) were representative of the CCS relaxation. (n=5 for the controls and n=5 for SCD transgenic mice with or without PEG-ADA, MRS1706 or ZM241389 treatment, respectively). Data are given as means±SE. *p<0.05, SCD transgenic mice versus the controls, **p<0.05, CCS of […] with PEG-ADA, MRS1706 or ZM241389 treatment versus CCS of SCD transgenic mice without treatment; ***p<0.05, CCS of the control mice with MRS1706 and/or L-NAME treatment versus CCS of the control mice without treatment.
# Sickle cell disease (SCD) transgenic mice, expressing exclusively human sickle hemoglobin, were also used. These mice were age-matched, adult male homozygotes [SS^−/−, consisting of a transgene and two targeted gene deletions: (Tg (Hu-miniLCR alpha 1G gamma A gamma delta beta s) Hba0//Hba0 Hbb0//Hbb00) and heterozygotes (SS^−/+, SS^−/− genotype except Hbb0//Hbb+), developed on a mixed-strain background (mouse strains FVB/N, 129, DBA/2, C57BL/6, Black Swiss)^94,95.
# as §1
molecule,measurement,setting,value
CCCn1c(=O)c2[nH]c(-c3cnn(Cc4cccc(C(F)(F)F)c4)c3)nc2n(CC)c1=O [CVT-6883],adenosine-mediated pulmonary fibrosis and enlargement of alveolar airspaces,ADA-deficient mice [1],significantly reduces adenosine-mediated pulmonary fibrosis and enlargement of alveolar airspaces
CNC[C@H](O)c1cccc(O)c1 [phenylephrine],time to maximum phenylephrine-induced contraction,"[2]; 10 μM, cavernosal strips from ADA+ and ADA-/- mice",10 to 20 s
"Cn1c(=O)c2[nH]cnc2n(C)c1=O [theophyline, theophylline]",inhibition of adenosine-mediated corpus cavernosal strip relaxation,[3],significantly inhibited adenosine-mediated corpus cavernosal strip relaxation in a dosage dependent manner
same,adenosine-induced penile tumescence,[4],inhibited adenosine-induced penile tumescence
"PEG-ADA: purified bovine ADA covalently modified with activated polyethylene glycol; modified form of ADA used for enzyme therapy (protein, UniProt P56658 2-363, looked up, PEG, modified form of ADA used for enzyme therapy) Adenosine deaminase: AQTPAFNKPKVELHVHLDGAIKPETILYYGRKRGIALPADTPEELQNIIGMDKPLSLPEFLAKFDYYMPAIAGCREAVKRIAYEFVEMKAKDGVVYVEVRYSPHLLANSKVEPIPWNQAEGDLTPDEVVSLVNQGLQEGERDFGVKVRSILCCMRHQPSWSSEVVELCKKYREQTVVAIDLAGDETIEGSSLFPGHVKAYAEAVKSGVHRTVHAGEVGSANVVKEAVDTLKTERLGHGYHTLEDATLYNRLRQENMHFEVCPWSSYLTGAWKPDTEHPVVRFKNDQVNYSLNTDDPLIFKSTLDTDYQMTKNEMGFTEEEFKRLNINAAKSSFLPEDEKKELLDLLYKAYGMPSPASAEQCL",prolonged penile erection / priapic activity,ADA-deficient mice [5],quickly corrected; also recorded: quickly reverses the priapic activity; also recorded: relieved the prolonged penile erection
same,"force, duration and area under baseline of EFS-induced relaxation","[2]; CCS from ADA-/- mice, EFS 5V and 30 Hz for 60 s, versus untreated CCS","significantly reduced the force, duration and area under baseline"
same,EFS-induced CCS relaxation,"[2]; CCS of control (ADA+) mice, EFS 5V and 30 Hz",decreased the EFS-induced CCS relaxation
same,"force, duration and area under baseline of EFS-induced relaxation",[6]; CCS of SCD transgenic mice versus untreated CCS,"significantly reduced the force, duration and area under baseline"
same,"force, duration and area under baseline of EFS-induced relaxation",[6]; CCS of the controls,"decreased the force, duration and area under baseline"
same,pulmonary inflammation and fibrosis,ADA-deficient mice [1]; lowering adenosine by PEG-ADA therapy,can prevent and even reverse aspects of pulmonary inflammation and fibrosis

# — patent US20100254965A1, “Adenosine Signaling in Diagnosis, Treatment, and Prevention of Priapism and Erectile Dysfunction” (BOARD OF REGENTS ,THE UNIVERSITY OF TEXAS SYSTEM, priority 2006, published 2010)
